The target in this experiment is GST-fusion protein containing amino acids 327-517 of KIAA0175 (human) (UniProt Q14680). In words: cell-based or functional assay.

“Ataxia telangiectasia mutated (ATM) (from UniProt Q13315 2-3056) (enzyme)” yielded an increase of phosphorylation by ATM immunoprecipitated from gamma-irradiated cells of 2 to 3 fold.

(Values after US20020049180A1.)
